Test system: hMSSCs
Experiment: Differentiation tendency of MSSC medium vs. CM medium
Type: cell-based, human
Details: as compared when the CM medium was used
Description: The differentiation capacity of a medium (hereinafter, “CM medium”) obtained by replacing the human noggin (Life Technologies), i.e., the constitutional ingredient 1) of the seven constitutional ingredients of the MSSC medium of Example 2, with a conditioned medium (a culture supernatant obtained after culturing CF1 cells with a medium obtained by replacing DMEM/F12 in a complete medium with knockout DMEM (supplemented with 20% knockout serum replacement (Invitrogen, USA), 1 mM glutamine, 1% nonessential amino acids (Invitrogen, USA), 0.1 mM β-mercaptoethanol, 0.1% penicillin-streptomycin and 5 mg/mL bovine serum albumin)) (the remaining constitutional ingredients 2)-7) are identical) was compared with that of the MSSC medium.
Noggin is generally used to maintain the characteristics of hESCs during culturing (Chaturvedi G, Simone P D, Ain R, Soares M J, Wolfe M W. Noggin maintains pluripotency of human embryonic stem cells grown on Matrigel. Cell Prolif. 2009 August; 42(4): 425-33).

B1: noggin: human noggin, constitutional ingredient 1) of the MSSC medium, 250 ng/mL (protein, UniProt Q13253 28-232, looked up)
Noggin: QHYLHIRPAPSDNLPLVDLIEHPDPIFDPKEKDLNETLLRSLLGGHYDPGFMATSPPEDRPGGGGGAAGGAEDLAELDQLLRQRPSGAMPSEIKGLEFSEGLAQGKKQRLSKKLRRKLQMWLWSQTFCPVLYAWNDLGSRFWPRYVKVGSCFSKRSCSVPEGMVCKPSKSVHLTVLRWRCQRRGGQRCGWIPIQYPIISECKCSC
increase of tendency for osteogenic differentiation: ≥ 10 times
